Test results taken from the supplement of paper PMC12458215.
± gives the uncertainty stated by the source.

Tested on: HEK293T
Test: plasma membrane surface immunostaining intensity (anti-HA, deep receptor scanning) (arbitrary fluorescence units); higher = higher plasma membrane expression

Sequence | plasma membrane surface immunostaining intensity (GPCR class: A (Olfactory)) | other results
MWPNGSSLGPCFRPTNITLEERRLIASPWFAASFCVVGLASNLLALSVLAGARQGGSHTRSSFLTFLCGLVLTDFLGLLVTGTIVVSQHAALFEWHAVDPGCRLCRFMGVVMIFFGLSPLLLGAAMASERYLGITRPFSRPAVASQRRAWATVGLVWAAALALGLLPLLGVGRYTVQYPGSWCFLTLGAESGDVAFGLLFSMLGGLSVGLSFLLNTVSVATLCHVYHGQEAAQQRPRDSEVEMMAQLLGIMVVASVCWLPLLVFIAQTVLRNPPAMSPAGQLSRTTEKELLIYLRVATWNQILDPWVYILFRRAVLRRLQPRLSTRPRSLSLQPQLTQRSGLQ [TBXA2R] |  | plasma membrane surface immunostaining intensity (GPCR class: A): 6469 ± 48
MWQEYYFLNVFFPLLKVCCLTINSHVVILLPWECYHLIWKILPYIGTTVGSMEEYNTSSTDFTFMGLFNRKETSGLIFAIISIIFFTALMANGVMIFLIQTDLRLHTPMYFLLSHLSLIDMMYISTIVPKMLVNYLLDQRTISFVGCTAQHFLYLTLVGAEFFLLGLMAYDRYVAICNPLRYPVLMSRRVCWMIIAGSWFGGSLDGFLLTPITMSFPFCNSREINHFFCEAPAVLKLACADTALYETVMYVCCVLMLLIPFSVVLASYARILTTVQCMSSVEGRKKAFATCSSHMTVVSLFYGAAMYTYMLPHSYHKPAQDKVLSVFYTILTPMLNPLIYSLRNKDVTGALKRALGRFKGPQRVSGGVF [OR2T1] | 451 ± 170 | 
MWQKNQTSLADFILEGLFDDSLTHLFLFSLTMVVFLIAVSGNTLTILLICIDPQLHTPMYFLLSQLSLMDLMHVSTIILKMATNYLSGKKSISFVGCATQHFLYLCLGGAECFLLAVMSYDRYVAICHPLRYAVLMNKKVGLMMAVMSWLGASVNSLIHMAILMHFPFCGPRKVYHFYCEFPAVVKLVCGDITVYETTVYISSILLLLPIFLISTSYVFILQSVIQMRSSGSKRNAFATCGSHLTVVSLWFGACIFSYMRPRSQCTLLQNKVGSVFYSIITPTLNSLIYTLRNKDVAKALRRVLRRDVITQCIQRLQLWLPRV [OR2AE1] | 159 ± 49 | 
MYKDCIESTGDYFLLCDAEGPWGIILESLAILGIVVTILLLLAFLFLMRKIQDCSQWNVLPTQLLFLLSVLGLFGLAFAFIIELNQQTAPVRYFLFGVLFALCFSCLLAHASNLVKLVRGCVSFSWTTILCIAIGCSLLQIIIATEYVTLIMTRGMMFVNMTPCQLNVDFVVLLVYVLFLMALTFFVSKATFCGPCENWKQHGRLIFITVLFSIIIWVVWISMLLRGNPQFQRQPQWDDPVVCIALVTNAWVFLLLYIVPELCILYRSCRQECPLQGNACPVTAYQHSFQVENQELSRARDSDGAEEDVALTSYGTPIQPQTVDPTQECFIPQAKLSPQQDAGGV [GPRC5D] |  | plasma membrane surface immunostaining intensity (GPCR class: C): 6410 ± 68
